From the supplement of paper PMC11316812
± gives the standard deviation of the averaged measurements.

Assays:
MCF7 = assay: percentage of EdU-negative (G0-arrested) nuclei per well, 72 h; higher = more G0 arrest; conditions: reference: sequence is the full UniProt precursor, the tested protein was the secreted form or ectodomain
hTERT-HMEC = assay: as above; conditions: reference: sequence is the full UniProt precursor, the tested protein was the secreted form or ectodomain
[1] = protein concentration 0.01225 µM
[2] = protein concentration 0.1225 µM
[3] = protein concentration 0.0257143 µM
[4] = protein concentration 0.257143 µM
[5] = protein concentration 0.01547 µM
[6] = protein concentration 0.1547 µM
[7] = protein concentration 0.0225 µM
[8] = protein concentration 0.03125 µM
[9] = protein concentration 0.3125 µM
[10] = protein concentration 0.01975 µM
[11] = protein concentration 0.1975 µM
[12] = protein concentration 0.021935 µM
[13] = protein concentration 0.21935 µM
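Also: secreted proteins added to cultured cells, EdU pulse at the end, nuclei found by Hoechst imaging, EdU status from nuclear versus surrounding ring intensity ratio, PBS as neutral control.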

MIPFLPMFSLLLLLIVNPINANNHYDKILAHSRIRGRDQGPNVCALQQILGTKKKYFSTCKNWYKKSICGQKTTVLYECCPGYMRMEGMKGCPAVLPIDHVYGTLGIVGATTTQRYSDASKLREEIEGKGSFTYFAPSNEAWDNLDSDIRRGLESNVNVELLNALHSHMINKRMLTKDLKNGMIIPSMYNNLGLFINHYPNGVVTVNCARIIHGNQIATNGVVHVIDRVLTQIGTSIQDFIEAEDDLSSFRAAAITSDILEALGRDGHFTLFAPTNEAFEKLPRGVLERIMGDKVASEALMKYHILNTLQCSESIMGGAVFETLEGNTIEIGCDGDSITVNGIKMVNKKDIVTNNGVIHLIDQVLIPDSAKQVIELAGKQQTTFTDLVAQLGLASALRPDGEYTLLAPVNNAFSDDTLSMDQRLLKLILQNHILKVKVGLNELYNGQILETIGGKQLRVFVYRTAVCIENSCMEKGSKQGRNGAIHIFREIIKPAEKSLHEKLKQDKRFSTFLSLLEAADLKELLTQPGDWTLFVPTNDAFKGMTSEEKEILIRDKNALQNIILYHLTPGVFIGKGFEPGVTNILKTTQGSKIFLKEVNDTLLVNELKSKESDIMTTNGVIHVVDKLLYPADTPVGNDQLLEILNKLIKYIQIKFVRGSTFKEIPVTVYTTKIITKVVEPKIKVIEGSLQPIIKTEGPTLTKVKIEGEPEFRLIKEGETITEVIHGEPIIKKYTKIIDGVPVEITEKETREERIITGPEIKYTRISTGGGETEETLKKLLQEEVTKVTKFIEGGDGHLFEDEEIKRLLQGDTPVRKLQANKKVQGSRRRLREGRSQ
percentage of EdU-negative (MCF7; [1]): 25.5 ± 0.97% | percentage of EdU-negative (MCF7; [2]): 27.4 ± 1.6% | percentage of EdU-negative (hTERT-HMEC; [1]): 5.41 ± 1.4% | percentage of EdU-negative (hTERT-HMEC; [2]): 5 ± 1.3%

MQKVTLGLLVFLAGFPVLDANDLEDKNSPFYYDWHSLQVGGLICAGVLCAMGIIIVMSAKCKCKFGQKSGHHPGETPPLITPGSAQS
percentage of EdU-negative (MCF7; [3]): 26.4 ± 0.91% | percentage of EdU-negative (MCF7; [4]): 24.9 ± 1% | percentage of EdU-negative (hTERT-HMEC; [3]): 4.87 ± 0.45% | percentage of EdU-negative (hTERT-HMEC; [4]): 4.969 ± 0.0066%

MSWSLHPRNLILYFYALLFLSSTCVAYVATRDNCCILDERFGSYCPTTCGIADFLSTYQTKVDKDLQSLEDILHQVENKTSEVKQLIKAIQLTYNPDESSKPNMIDAATLKSRKMLEEIMKYEASILTHDSSIRYLQEIYNSNNQKIVNLKEKVAQLEAQCQEPCKDTVQIHDITGKDCQDIANKGAKQSGLYFIKPLKANQQFLVYCEIDGSGNGWTVFQKRLDGSVDFKKNWIQYKEGFGHLSPTGTTEFWLGNEKIHLISTQSAIPYALRVELEDWNGRTSTADYAMFKVGPEADKYRLTYAYFAGGDAGDAFDGFDFGDDPSDKFFTSHNGMQFSTWDNDNDKFEGNCAEQDGSGWWMNKCHAGHLNGVYYQGGTYSKASTPNGYDNGIIWATWKTRWYSMKKTTMKIIPFNRLTIGEGQQHHLGGAKQVRPEHPAETEYDSLYPEDDL
percentage of EdU-negative (MCF7; [5]): 24 ± 1.3% | percentage of EdU-negative (MCF7; [6]): 25 ± 2% | percentage of EdU-negative (hTERT-HMEC; [5]): 5.07 ± 0.17% | percentage of EdU-negative (hTERT-HMEC; [6]): 5.92 ± 0.15%

MGPLINRCKKILLPTTVPPATMRIWLLGGLLPFLLLLSGLQRPTEGSEVAIKIDFDFAPGSFDDQYQGCSKQVMEKLTQGDYFTKDIEAQKNYFRMWQKAHLAWLNQGKVLPQNMTTTHAVAILFYTLNSNVHSDFTRAMASVARTPQQYERSFHFKYLHYYLTSAIQLLRKDSIMENGTLCYEVHYRTKDVHFNAYTGATIRFGQFLSTSLLKEEAQEFGNQTLFTIFTCLGAPVQYFSLKKEVLIPPYELFKVINMSYHPRGDWLQLRSTGNLSTYNCQLLKASSKKCIPDPIAIASLSFLTSVIIFSKSRV
percentage of EdU-negative (MCF7; [7]): 23.9 ± 0.46% | percentage of EdU-negative (MCF7; protein concentration 0.225 µM): 27.2 ± 0.8% | percentage of EdU-negative (hTERT-HMEC; [7]): 5.08 ± 0.63% | percentage of EdU-negative (hTERT-HMEC; protein concentration 0.225 µM): 6.69 ± 0.27%

MRSLLLLSAFCLLEAALAAEVKKPAAAAAPGTAEKLSPKAATLAERSAGLAFSLYQAMAKDQAVENILVSPVVVASSLGLVSLGGKATTASQAKAVLSAEQLRDEEVHAGLGELLRSLSNSTARNVTWKLGSRLYGPSSVSFADDFVRSSKQHYNCEHSKINFRDKRSALQSINEWAAQTTDGKLPEVTKDVERTDGALLVNAMFFKPHWDEKFHHKMVDNRGFMVTRSYTVGVMMMHRTGLYNYYDDEKEKLQIVEMPLAHKLSSLIILMPHHVEPLERLEKLLTKEQLKIWMGKMQKKAVAISLPKGVVEVTHDLQKHLAGLGLTEAIDKNKADLSRMSGKKDLYLASVFHATAFELDTDGNPFDQDIYGREELRSPKLFYADHPFIFLVRDTQSGSLLFIGRLVRPKGDKMRDEL
percentage of EdU-negative (MCF7; [8]): 26.6 ± 2.3% | percentage of EdU-negative (MCF7; [9]): 27.2 ± 1.1% | percentage of EdU-negative (hTERT-HMEC; [8]): 4.8 ± 0.84% | percentage of EdU-negative (hTERT-HMEC; [9]): 7.55 ± 1%

MTSSRLWFSLLLAAAFAGRATALWPWPQNFQTSDQRYVLYPNNFQFQYDVSSAAQPGCSVLDEAFQRYRDLLFGSGSWPRPYLTGKRHTLEKNVLVVSVVTPGCNQLPTLESVENYTLTINDDQCLLLSETVWGALRGLETFSQLVWKSAEGTFFINKTEIEDFPRFPHRGLLLDTSRHYLPLSSILDTLDVMAYNKLNVFHWHLVDDPSFPYESFTFPELMRKGSYNPVTHIYTAQDVKEVIEYARLRGIRVLAEFDTPGHTLSWGPGIPGLLTPCYSGSEPSGTFGPVNPSLNNTYEFMSTFFLEVSSVFPDFYLHLGGDEVDFTCWKSNPEIQDFMRKKGFGEDFKQLESFYIQTLLDIVSSYGKGYVVWQEVFDNKVKIQPDTIIQVWREDIPVNYMKELELVTKAGFRALLSAPWYLNRISYGPDWKDFYIVEPLAFEGTPEQKALVIGGEACMWGEYVDNTNLVPRLWPRAGAVAERLWSNKLTSDLTFAYERLSHFRCELLRRGVQAQPLNVGFCEQEFEQT
percentage of EdU-negative (MCF7; [10]): 25.5 ± 0.27% | percentage of EdU-negative (MCF7; [11]): 26.4 ± 5.3% | percentage of EdU-negative (hTERT-HMEC; [10]): 5.032 ± 0.0092% | percentage of EdU-negative (hTERT-HMEC; [11]): 20.1 ± 1.8%

MTLTLSVLICLGLSVGPRTCVQAGTLPKPTLWAEPASVIARGKPVTLWCQGPLETEEYRLDKEGLPWARKRQNPLEPGAKAKFHIPSTVYDSAGRYRCYYETPAGWSEPSDPLELVATGFYAEPTLLALPSPVVASGGNVTLQCDTLDGLLTFVLVEEEQKLPRTLYSQKLPKGPSQALFPVGPVTPSCRWRFRCYYYYRKNPQVWSNPSDLLEILVPGVSRKPSLLIPQGSVVARGGSLTLQCRSDVGYDIFVLYKEGEHDLVQGSGQQPQAGLSQANFTLGPVSRSHGGQYRCYGAHNLSPRWSAPSDPLDILIAGLIPDIPALSVQPGPKVASGENVTLLCQSWHQIDTFFLTKEGAAHPPLCLKSKYQSYRHQAEFSMSPVTSAQGGTYRCYSAIRSYPYLLSSPSYPQELVVSGPSGDPSLSPTGSTPTPGPEDQPLTPTGLDPQSGLGRHLGVVTGVSVAFVLLLFLLLFLLLRHRHQSKHRTSAHFYRPAGAAGPEPKDQGLQKRASPVADIQEEILNAAVKDTQPKDGVEMDAPAAASEAPQDVTYAQLHSLTLRREATEPPPSQEREPPAEPSIYAPLAIH
percentage of EdU-negative (MCF7; [7]): 26.64 ± 0.18% | percentage of EdU-negative (MCF7; protein concentration 0.225 µM): 24.8 ± 1.6% | percentage of EdU-negative (hTERT-HMEC; [7]): 5.56 ± 0.57% | percentage of EdU-negative (hTERT-HMEC; protein concentration 0.225 µM): 4.64 ± 0.082%

MLPAATASLLGPLLTACALLPFAQGQTPNYTRPVFLCGGDVKGESGYVASEGFPNLYPPNKECIWTITVPEGQTVSLSFRVFDLELHPACRYDALEVFAGSGTSGQRLGRFCGTFRPAPLVAPGNQVTLRMTTDEGTGGRGFLLWYSGRATSGTEHQFCGGRLEKAQGTLTTPNWPESDYPPGISCSWHIIAPPDQVIALTFEKFDLEPDTYCRYDSVSVFNGAVSDDSRRLGKFCGDAVPGSISSEGNELLVQFVSDLSVTADGFSASYKTLPRGTAKEGQGPGPKRGTEPKVKLPPKSQPPEKTEESPSAPDAPTCPKQCRRTGTLQSNFCASSLVVTATVKSMVREPGEGLAVTVSLIGAYKTGGLDLPSPPTGASLKFYVPCKQCPPMKKGVSYLLMGQVEENRGPVLPPESFVVLHRPNQDQILTNLSKRKCPSQPVRAAASQD
percentage of EdU-negative (MCF7; [12]): 22.7 ± 2.1% | percentage of EdU-negative (MCF7; [13]): 26.5 ± 0.72% | percentage of EdU-negative (hTERT-HMEC; [12]): 4.8 ± 0.62% | percentage of EdU-negative (hTERT-HMEC; [13]): 6.48 ± 0.73%

MAAPVPWACCAVLAAAAAVVYAQRHSPQEAPHVQYERLGSDVTLPCGTANWDAAVTWRVNGTDLAPDLLNGSQLVLHGLELGHSGLYACFHRDSWHLRHQVLLHVGLPPREPVLSCRSNTYPKGFYCSWHLPTPTYIPNTFNVTVLHGSKIMVCEKDPALKNRCHIRYMHLFSTIKYKVSISVSNALGHNATAITFDEFTIVKPDPPENVVARPVPSNPRRLEVTWQTPSTWPDPESFPLKFFLRYRPLILDQWQHVELSDGTAHTITDAYAGKEYIIQVAAKDNEIGTWSDWSVAAHATPWTEEPRHLTTEAQAAETTTSTTSSLAPPPTTKICDPGELGSGGGPSAPFLVSVPITLALAAAAATASSLLI
percentage of EdU-negative (MCF7; [7]): 25 ± 1.9% | percentage of EdU-negative (MCF7; protein concentration 0.225 µM): 27.1 ± 2.6% | percentage of EdU-negative (hTERT-HMEC; [7]): 5 ± 0.54% | percentage of EdU-negative (hTERT-HMEC; protein concentration 0.225 µM): 6.52 ± 0.21%

MTARAWASWRSSALLLLLVPGYFPLSHPMTVAGPVGGSLSVQCRYEKEHRTLNKFWCRPPQILRCDKIVETKGSAGKRNGRVSIRDSPANLSFTVTLENLTEEDAGTYWCGVDTPWLRDFHDPIVEVEVSVFPAGTTTASSPQSSMGTSGPPTKLPVHTWPSVTRKDSPEPSPHPGSLFSNVRFLLLVLLELPLLLSMLGAVLWVNRPQRSSRSRQNWPKGENQ
percentage of EdU-negative (MCF7; [7]): 26.2 ± 3.7% | percentage of EdU-negative (MCF7; protein concentration 0.225 µM): 23.5 ± 0.75% | percentage of EdU-negative (hTERT-HMEC; [7]): 5.08 ± 0.64% | percentage of EdU-negative (hTERT-HMEC; protein concentration 0.225 µM): 12.4 ± 10%

MLALLCSCLLLAAGASDAWTGEDSAEPNSDSAEWIRDMYAKVTEIWQEVMQRRDDDGALHAACQVQPSATLDAAQPRVTGVVLFRQLAPRAKLDAFFALEGFPTEPNSSSRAIHVHQFGDLSQGCESTGPHYNPLAVPHPQHPGDFGNFAVRDGSLWRYRAGLAASLAGPHSIVGRAVVVHAGEDDLGRGGNQASVENGNAGRRLACCVVGVCGPGLWERQAREHSERKKRRRESECKAA
percentage of EdU-negative (MCF7; [7]): 23.8 ± 1% | percentage of EdU-negative (MCF7; protein concentration 0.225 µM): 27 ± 0.74% | percentage of EdU-negative (hTERT-HMEC; [7]): 7 ± 3.4% | percentage of EdU-negative (hTERT-HMEC; protein concentration 0.225 µM): 4.98 ± 0.59%
